Patent publication US12338277

Tests used:
Assay in all cases: cell-based or functional assay
[1] = biological target: HIV-1 envelope of pseudovirus CAAN5342.A2 (HIV-1)
[2] = biological target: HIV-1 envelope of pseudovirus CNE19 (HIV-1)
[3] = biological target: HIV-1 envelope of pseudovirus X2088_c9 (HIV-1)
[4] = biological target: HIV-1 Env of pseudovirus X2088_c9 (HIV-1)
[5] = biological target: HIV-1 envelope glycoprotein of pseudovirus Ce1172_H1 (clade C (T/F)) (HIV-1)
[6] = biological target: HIV-1 envelope glycoprotein of pseudovirus 928-28 (clade CRF02_AG) (HIV-1)
[7] = biological target: HIV-1 envelope glycoprotein of pseudovirus Ce1086_B2 (clade C (T/F)) (HIV-1)
[8] = biological target: HIV-1 envelope glycoprotein of pseudovirus 1394C9G1(Rev-) (clade C (T/F)) (HIV-1)
[9] = biological target: HIV-1 envelope glycoprotein of pseudovirus CNE58 (clade BC) (HIV-1)
[10] = biological target: HIV-1 envelope glycoprotein of pseudovirus 3365.v2.c2 (clade A) (HIV-1)
[11] = biological target: HIV-1 envelope glycoprotein of pseudovirus BJOX009000.02.4 (clade CRF01_AE) (HIV-1)
[12] = biological target: HIV-1 envelope glycoprotein of pseudovirus X1193 c1 (clade G) (HIV-1)
[13] = biological target: HIV-1 envelope glycoprotein of pseudovirus ZM233M.PB6 (clade C) (HIV-1)
[14] = biological target: HIV-1 envelope glycoprotein of pseudovirus T278-50 (clade CRF02 AG) (HIV-1)
[15] = biological target: HIV-1 envelope glycoprotein of pseudovirus CNE30 (clade BC) (HIV-1)
[16] = biological target: HIV-1 envelope glycoprotein of pseudovirus WITO4160.33 (clade B) (HIV-1)
[17] = biological target: HIV-1 envelope glycoprotein of pseudovirus 1054_07_TC4_1499 (clade B (T/F)) (HIV-1)
[18] = biological target: HIV-1 envelope glycoprotein of pseudovirus X1254_c3 (clade G) (HIV-1)
[19] = biological target: HIV-1 envelope glycoprotein of pseudovirus TRJO4551.58 (clade B) (HIV-1)
[20] = biological target: HIV-1 envelope glycoprotein of pseudovirus HIV-16055-2.3 (clade C) (HIV-1)

Sequence of 10-1074 (antibody) (VH): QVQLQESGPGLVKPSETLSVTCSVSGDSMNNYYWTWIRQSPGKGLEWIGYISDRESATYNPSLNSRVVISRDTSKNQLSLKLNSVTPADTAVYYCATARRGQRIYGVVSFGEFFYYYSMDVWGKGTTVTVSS
Sequence of 10-1074 (antibody) (V domain): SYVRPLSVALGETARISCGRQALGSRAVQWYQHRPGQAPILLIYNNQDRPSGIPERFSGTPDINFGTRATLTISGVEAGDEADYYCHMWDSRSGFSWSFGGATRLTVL
Sequence of 10-996 (antibody) (VH): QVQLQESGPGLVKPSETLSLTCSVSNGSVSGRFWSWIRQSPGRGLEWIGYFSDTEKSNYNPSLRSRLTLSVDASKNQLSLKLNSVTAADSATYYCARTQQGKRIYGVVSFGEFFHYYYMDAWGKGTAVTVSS
Sequence of 10-996 (antibody) (VL): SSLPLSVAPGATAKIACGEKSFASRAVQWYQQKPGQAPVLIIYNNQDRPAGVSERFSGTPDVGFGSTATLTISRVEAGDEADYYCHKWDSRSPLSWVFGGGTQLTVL

Substance	IC50 (TZM-bl neutralization) [1] [µg/mL]	IC50 (TZM-bl neutralization) [2] [µg/mL]	IC50 (TZM-bl neutralization) [3] [µg/mL]	IC80 (TZM-bl neutralization) [4] [µg/mL]	IC50 in the TZM-bl neutralization assay [5] [µg/mL]	IC50 in the TZM-bl neutralization assay [6] [µg/mL]	IC50 in the TZM-bl neutralization assay [7] [µg/mL]	IC50 in the TZM-bl neutralization assay [8] [µg/mL]	IC50 in the TZM-bl neutralization assay [9] [µg/mL]	IC50 in the TZM-bl neutralization assay [10] [µg/mL]	IC50 in the TZM-bl neutralization assay [11] [µg/mL]	IC50 in the TZM-bl neutralization assay [12] [µg/mL]	IC50 in the TZM-bl neutralization assay [13] [µg/mL]	IC50 in the TZM-bl neutralization assay [14] [µg/mL]	IC50 in the TZM-bl neutralization assay [15] [µg/mL]	IC50 in the TZM-bl neutralization assay [16] [µg/mL]	IC50 in the TZM-bl neutralization assay [17] [µg/mL]	IC50 in the TZM-bl neutralization assay [18] [µg/mL]	IC50 in the TZM-bl neutralization assay [19] [µg/mL]	IC50 in the TZM-bl neutralization assay [20] [µg/mL]
10-996 (antibody)	0.013	3.45	0.002	0.014	–	–	–	–	–	–	–	–	–	–	–	–	–	–	–	–
10-1074 (antibody)	0.007	50	0.003	0.014	0.166	4.7	> 50	0.191	0.968	0.45	> 50	0.475	0.349	18.3	1.2	2.11	0.563	0.297	0.634	> 50
PGT121 (antibody)	–	–	–	–	0.088	> 50	0.006	3.37	> 50	7.35	37.3	0.202	8.98	> 50	0.559	6.01	0.696	0.199	35.3	4.29
